Experimental data: patent publication US10513563

Target: transferrin receptor on H4IIE hepatoma cells (rat) (UniProt Q99376)
Test: cell-based or functional assay

Chain of UniProt Q99376 (Q99376 whole entry): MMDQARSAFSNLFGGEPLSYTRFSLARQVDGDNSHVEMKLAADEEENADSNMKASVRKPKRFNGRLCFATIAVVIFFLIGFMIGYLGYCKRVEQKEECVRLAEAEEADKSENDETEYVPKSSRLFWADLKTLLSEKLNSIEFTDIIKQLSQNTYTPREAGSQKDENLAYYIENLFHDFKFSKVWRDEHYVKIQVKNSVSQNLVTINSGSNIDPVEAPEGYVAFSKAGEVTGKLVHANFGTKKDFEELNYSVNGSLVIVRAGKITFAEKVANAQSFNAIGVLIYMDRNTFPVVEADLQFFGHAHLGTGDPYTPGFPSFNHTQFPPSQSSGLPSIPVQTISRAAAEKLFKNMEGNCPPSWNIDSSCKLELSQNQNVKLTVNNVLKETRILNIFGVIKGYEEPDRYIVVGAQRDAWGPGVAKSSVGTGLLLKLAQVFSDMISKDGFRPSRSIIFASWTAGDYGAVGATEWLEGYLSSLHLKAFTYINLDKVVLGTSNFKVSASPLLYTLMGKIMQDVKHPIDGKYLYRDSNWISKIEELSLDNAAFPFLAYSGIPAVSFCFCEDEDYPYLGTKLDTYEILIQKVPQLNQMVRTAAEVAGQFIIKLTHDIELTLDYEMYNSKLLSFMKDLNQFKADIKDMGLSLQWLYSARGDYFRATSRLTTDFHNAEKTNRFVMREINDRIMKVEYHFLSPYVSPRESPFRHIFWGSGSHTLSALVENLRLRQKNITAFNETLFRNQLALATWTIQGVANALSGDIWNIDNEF

- IC50 of inhibition of glucose production in H4IIE cells (24 hr treatment): 4.6 pM
- activity in inhibition of glucose production in H4IIE cells relative to proinsulin and insulin: 300 fold
Substance: PI-Tf fusion protein (proinsulin-transferrin recombinant fusion protein)
